The results in this text go back to patent US12227570B2, “Anti-CEACAM6 antibodies and methods of use” (Singapore Health Services PTE LTD, priority 2016, dated 2025).

The test system of one experiment is PC-9 cells. Description: Antibody internalisation by immunofluorescence. It is filed as cell-based. As to conditions: 37° C.; a proportion of cells not internalised at 120 min.
The next experiment relates to A549. Briefly: Flow cytometry binding on A549 lung adenocarcinoma. It is filed as cell-based. The note with it: A549 parental, heterogeneous binding. The protocol: (§1) Cells were harvested as single cell suspensions using trypsin. 1E5 cells were used per sample, and incubated with 100 μl of mAb culture supernatant for 30 min. Cells were then washed with 1% bovine serum albumin in PBS, and further incubated with 100 μl of goat anti-mouse antibody fluorescein isothiocyanate (FITC)-conjugated (1:500, DAKO, Denmark) for 15 min at 4° C. in the dark. Cells were again washed and resuspended in 200 μL of 1% BSA/PBS for analysis on Guava® easy Cyte 8HT Benchtop Flow Cytometer (Merck Millipore, USA). For interrogation of […] binding, cells were fixed with 4% PFA/PBS (Affymetrix, USA) at room temperature for 10 min, washed in PBS, and permeabilised with 0.1% triton/PBS for 5 min at room temperature, before proceeding with incubation with mAb supernatant/primary antibody. For staining with propidium iodide, PI was added to a final concentration of 5 μg/mL for 5 min just prior to analysis by the flow cytometer.

Experiment [1] concerns the target T1, CEACAM6 (Homo sapiens, UniProt P40199).
T1 construct: 20 μg of PC-9 membrane protein extract was first denatured; endogenous in cells; host or cells: PC-9 cells
T1 sequence (P40199 35-320): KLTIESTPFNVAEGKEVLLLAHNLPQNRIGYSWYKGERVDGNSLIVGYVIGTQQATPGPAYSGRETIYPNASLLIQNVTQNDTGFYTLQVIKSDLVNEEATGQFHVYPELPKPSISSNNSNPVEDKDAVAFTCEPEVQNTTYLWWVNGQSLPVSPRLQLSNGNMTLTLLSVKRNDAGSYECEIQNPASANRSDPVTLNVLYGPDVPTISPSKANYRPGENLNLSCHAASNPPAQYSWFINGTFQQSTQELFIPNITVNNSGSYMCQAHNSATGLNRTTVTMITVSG
Briefly: Binding after siRNA knock down of CEACAM6. The note with it: PC-9 cells; Western blot and flow cytometry. The format is cell-based.

Experiment [2] has as its system NSCLC lines, GR HCC827 clones, breast cancer lines, colorectal cancer lines. Description: Flow cytometry binding on other cancer cell lines. The format is cell-based. The protocol: as §1
For experiment [3], the target named is T1, CEACAM6. Description: Western blot / flow cytometry binding after PNGase or Tunicamycin treatment. As to conditions: for binding to the antigen band after PNGase treatment: Western blot, PC-9 lysate, N-glycans removed. As for the experimental part: Membrane proteins were extracted from PC-9 cell pellets using the Membrane Protein Extraction Kit (BioVision, USA). Briefly, cell pellets of 5E7 cells were resuspended in 1 mL of Homogenize Buffer and cell membranes broken in a dounce homogenizer. This was transferred into an Eppendorf tube and centrifuged at 700×g for 10 min at 4° C. to remove cell debris. The supernatant was transferred to a new Eppendorf tube and centrifuged at 12,000×g for 30 min at 4° C. to pellet the membrane. The membrane was finally resuspended in 500 μl of 1×Cell Lysis Buffer (Cell Signaling Technology, USA) containing protease inhibitors (Pierce ThermoScientific, USA). The membrane protein solution was clarified with by centrifugation at 15,000×g for 5 min at 4° C., to remove any insoluble proteins. Protein was quantified using the Pierce […] Protein Assay Reagent.
PC-9 membrane protein extracts, or IP products were denatured by in protein loading dye containing SDS at a final concentration of 1%, and heated at 95° C. for 5 min. The sample was then loaded into pre-cast gradient gel (NuPAGE 4-12% gradient gel, Invitrogen), and separated by SDS-PAGE running MOPS Running Buffer (NuPAGE Invitrogen, USA). After gel electrophoresis, the resolved proteins were transferred onto a polyvinylidene fluoride (PVDF) membrane (BioRad, USA) in a transfer buffer containing 20% methanol, 10% Tris-Glycine in DI water at constant voltage of 110V for 90 min.
The membrane was then blocked with 5% milk prepared in PBS/0.1% Tween-20 (PBS-T) for 30 min at room temperature. The membrane was then washed in PBS-T, followed by overnight incubation of GR6A04 at 2 μg/mL in 2.5% milk at 4° C. Subsequently, the membrane was washed in PBS-T, before incubation with goat anti-mouse secondary antibodies horseradish peroxidase-conjugated (1:10000, Dako) for 1 hour at room temperature. […]
PNGase digestion was carried out according to manufacturer's protocol (New England Biolabs). […] Digested proteins were subsequently analysed by Western blotting as described above. […]

The test system of another experiment is normal tissues. Briefly: IHC staining on FFPE normal tissue microarray (MNO961). The protocol:
TMA slides containing FFPE tissues were first heated in an oven at 60° C. for 30 min to remove any solvents. The slides were then dewaxed and re-hydrated through sequential immersion in Histoclear (2×), 100% ethanol (2×), 95% ethanol, 70% ethanol, and finally in DI water.
Heat-induced epitope retrieval was done in a solution containing 10 mM Tris Base, 1 mM EDTA, 0.05% Tween 20 at pH 9.0, and heated at 95° C. for 20 min. The container with the antigen retrieval solution and slides was then removed and allowed to cool to room temperature for an additional 20 min. The slides were then washed in DI water. Endogenous peroxidase activity was then blocked by incubation of the slides with 3% H2O2 in PBS for 30 min at room temperature. The slides were washed in DI water, followed by a blocking step with 10% normal goat serum in PBS for 30 min.
The slides were then incubated with GR6A04 at 5 μg/mL in blocking solution overnight at 4° C. The slides were then washed an incubated with a polymer-based anti-mouse secondary antibody conjugated with HRP (DAKO, USA) for 30 min at room temperature, and developed with the recommended DAB chromogen substrate solution for 2 min, and counterstained with Gill's Hematoxylin solution.
The stained slides were subsequently dehydrated through immersion in 50% ethanol, 70% ethanol, 90% ethanol, 100% ethanol (2×) and Histoclear (2×), before mounting with a glass cover slip. The slides were then imaged with the Zeiss AxioScan Digital Slide Scanner.

B1: GR6A04: mouse IgG1, κ anti-CEACAM6 monoclonal antibody, VH SEQ ID NO:1, VL SEQ ID NO:2, binds N-glycosylated CEACAM6 (antibody, V domains shown)
VH: SGPELVKPGASVKMSCKASGNTFTSYVMHWVKQKPGQGLEWIGYINPYNDGTKYNEKFKGKATLTSDKSSSTAYMELSSLTSEDSAVYYCARSTARATPYFYAMDYWGQGTSVTVSS
VL: DILMTQSPSSLAVTAGEKVTMRCKSSQSLLWSVNQNSYLSWYQLKQGQPPKLLLYGASIRESWVPDRFTGSGSGTDFTLTISNVHVEDLAVYYCQHNHGSFLPYTFGGGTKLEIK
modifications: Isolated antibody fragment
On to B1, for which the time to internalise in the experiment with PC-9 cells is at most 120 min. Moreover, in the experiment with A549, the “GR6A04+ population (positive binding tail)” value is reported as 15-30%. Moreover, in the experiment with CEACAM6 [1], the “binding after knockdown of CEACAM6 expression” value is on record as “decrease”. For the same molecule, in experiment [2], the “GR HCC827 clones with binding” value is given as 2 of 6, the “breast cancer lines with reactivity” value is 3 of 13 and the “colorectal cancer lines with reactivity” value is 1 of 2. Further, in experiment [2] (A549 and Calu-3 positive), the “NSCLC lines with partial binding” value is 2 of 4. The “binding after PNGase and Tunicamycin treatment” value in the experiment with CEACAM6 [3] (PNGase digestion, Tunicamycin N-glycosylation inhibitor) was “affected”. Besides, the “binding to the antigen band after PNGase treatment” value with CEACAM6 [3] is recorded as “abolished binding”. For the same molecule, the “binding to the antigen band after PNGase treatment” value in the experiment with CEACAM6 [3] (listed as GR 6A04) was “abolished”. Moreover, in the experiment with normal tissues (MNO961), the “colon cores weakly positive (2+)” value is listed as 2 of 3, the “normal tissue cores stained positive” value is recorded as 3 and the “prostate cores weakly positive (2+)” value is on record as 1 of 3. In addition, the “normal tissue cores with no staining” value in the experiment with normal tissues (MNO961, 35 anatomical sites) was 93 of the 96.
